{"source": "patent WO2016071355A1", "about": "(dated 2016)", "key": {"[1]": {"molecular_target": "T1, soluble extracellular region of human CD38 fused to a 6-His-tag (human, UniProt P28907 43-300)", "T1 construct": "also called human CD38 extracellular domain with a poly-histidine tag; human CD38 antigen", "assay": "SPR, antibody captured on protein G, CD38-His injected"}, "human CD38 on cells": {"molecular_target": "human CD38 on cells (human, UniProt P28907 1-300)", "assay": "cell-based or functional assay"}, "[2]": {"molecular_target": "T1, soluble extracellular region of human …", "assay": "SPR"}, "[3]": {"molecular_target": "T2, soluble extracellular region of cynomolgus monkey CD38 antigen fused to a 6-His-tag (cynomolgus monkey, UniProt Q5VAN0 45-301)", "T2 construct": "also called cynomolgus CD38", "assay": "SPR"}, "Protein A": {"molecular_target": "T3, Protein A (Staphylococcus aureus, UniProt P38507 212-269)", "T3 construct": "The resin ligand is a commercial recombinant Protein A derivative", "assay": "protein A affinity chromatography"}, "Protein G": {"molecular_target": "Protein G (UniProt P19909 303-497)", "assay": "protein G affinity chromatography, SDS-PAGE"}}}
{"binder": "humanized HB-7 best-fit antibody (antibody, human IgG1, kappa, V domains shown, Human IgG1 format) VH: QVQLQESGPGLVKPSETLSLTCTVSGFSLISYGVHWVRQPPGKGLEWLGVIWRGGSTDYNAAFMSRLTISKDNSKNQVSLKLSSVTAADTAVYFCAKTLITTGYAMDYWGQGTLVTVSS VL: DIQLTQSPSSLSASVGDRVTITCRASEDIYNRLAWYQQKPGKAPKLLISGATSLETGVPSRFSGSGSGKDYTLTISSLQPEDFATYYCQQYWSTPTFGQGTKLEIKR", "values": [{"measurement": "Kd", "setting": "[1]", "result": 3.6, "unit": "nM"}]}
{"binder": "BEAT CD38-9G7Mouse/CD3 (bispecific antibody, human IgG1, kappa, L234A L235A) heavy: not shown light: DIVMTQSHKFMSTSVGDRVSISCKASQDVITSVAWFQQKPGQSPKLLIYSASYRYTGVPDRFTGSGSGTDFTFTISSVQAEDLAVYYCQQHYTIPLTFGAGTKLELKRTVAAPSVFIFPPSDEQLKSGTASVVCLLNNFYPREAKVQWKVDNALQSGNSQESVTEQDSKDSTYSLSSTLTLSKADYEKHKVYACEVTHQGLSSPVTKSFNRGEC scFv: EVQLVESGGGLVQPGGSLRLSCAASGYTFTRYTMHWVRQAPGKGLEWIGYINPSRGYTYYADSVKGRFTLSTDKSKNTAYLQMSSLRAEDTAVYYCARYYDDHYCLDYWGQGTLVTVSSGGGGSGGGGSGGGGSDIQLTQSPSSLSASVGDRVTITCRASSSVSYVAWYQQKPGKAPKRWIYDTSKLYSGVPSRFSGSGSGTDYTLTISSLQPEDFATYYCQQWSSNPPTFGQGTKVEIKGGGGTDKTHTCPPCPAPEAAGGPSVFLFPPKPKDTLMISRTPEVTCVVVDVSHEDPEVQFKWYVDGVEVHNAKTKPREEQYNSTFRVVSVLTVLHQDWLNGKEYKCKVSNKALPAPIEKTISKTKGQPREPEVATFPPSREEMTKNQVTLVCLVTGFYPSDIAVEWESSGQPENNYNTDPPLLESDGSFALSSRLRVDKSRWQQGNIFSCSVMHEALHNRFTQKSLSLSPGK", "values": [{"measurement": "EC50, killing of Daudi cells (flow cytometry, PBMCs, 48h)", "setting": "human CD38 on cells", "result": 0.0032, "unit": "nM"}]}
{"binder": "BEAT CD38-OKT10Mouse/CD3 (bispecific antibody, human IgG1, kappa, L234A L235A) heavy: QVELVESGGSLKLSCAASGFDFSRSWMNWVRQAPGKGLEWIGEINPDSSTINYTTSLKDKFIISRDNAKNTLYLQMTKVRSEDTALYYCARYGNWFPYWGQGTLVTVSSASTKGPSVFPLAPSSKSTSGGTAALGCLVKDYFPEPVTVSWNSGALTSGVHTFPAVLQSSGLYSLSSVVTVPSSSLGTQTYICNVNHKPSNTKVDKKVEPKSCDKTHTCPPCPAPEAAGGPSVFLFPPKPKDTLMISRTPEVTCVVVDVSHEDPEVKFNWYVDGVEVHNAKTKPREEQYNSTYRVVSVLTVLHQDWLNGKEYKCKVSNKALPAPIEKTISKAKGQPREPAVYTLPPSRDELTKNQVKLVCLVTGFYPSDIAVEWESNGQPENNYYTTPPVLDSDGSFSLVSWLNVDKSRWQQGNVFSCSVMHEALHNHYTQKSLSLSPGK light: DILMTQSQKIMPTSVGDRVSVTCKASQNVDTNVAWYQQKPGQSPKALIYSASYRYSGVPDRFTGSGSGTDFTLTITNVQSEDLAEYFCQQYDSYPLTFGAGTKLDLKRTVAAPSVFIFPPSDEQLKSGTASVVCLLNNFYPREAKVQWKVDNALQSGNSQESVTEQDSKDSTYSLSSTLTLSKADYEKHKVYACEVTHQGLSSPVTKSFNRGE scFv: EVQLVESGGGLVQPGGSLRLSCAASGYTFTRYTMHWVRQAPGKGLEWIGYINPSRGYTYYADSVKGRFTLSTDKSKNTAYLQMSSLRAEDTAVYYCARYYDDHYCLDYWGQGTLVTVSSGGGGSGGGGSGGGGSDIQLTQSPSSLSASVGDRVTITCRASSSVSYVAWYQQKPGKAPKRWIYDTSKLYSGVPSRFSGSGSGTDYTLTISSLQPEDFATYYCQQWSSNPPTFGQGTKVEIKGGGGTDKTHTCPPCPAPEAAGGPSVFLFPPKPKDTLMISRTPEVTCVVVDVSHEDPEVQFKWYVDGVEVHNAKTKPREEQYNSTFRVVSVLTVLHQDWLNGKEYKCKVSNKALPAPIEKTISKTKGQPREPEVATFPPSREEMTKNQVTLVCLVTGFYPSDIAVEWESSGQPENNYNTDPPLLESDGSFALSSRLRVDKSRWQQGNIFSCSVMHEALHNRFTQKSLSLSPGK", "values": [{"measurement": "EC50, killing of Daudi cells (flow cytometry, PBMCs, 48h)", "setting": "human CD38 on cells", "result": 0.126, "unit": "nM"}]}
{"binder": "first humanized 9G7 antibody prototype (antibody, human IgG1, kappa, V domains shown, Human IgG1 isotype; also called first antibody prototype; first humanized prototype) VH: QVTLKESGPTLVKPTQTLTLTCTFSGLSLSTSGKGVGWIRQPPGKALEWLAHIWWDDDKRYNPALKSRLTITKDTSKNQVVLTMTNMDPVDTATYYCARIELGRSYVMDYWGQGTLVTVSS VL: DIQMTQSPSSLSASVGDRVTITCQASQDVITSVAWFQQKPGKAPKLLIYSASYRYTGVPSRFSGSGSGTDFTFTISSLQPEDIATYYCQQHYTIPLTFGQGTKLEIKR", "values": [{"measurement": "Kd", "setting": "[2]", "result": 1, "unit": "nM"}, {"measurement": "fold lower binding than the mouse parental antibody", "setting": "[2]", "result": 3, "unit": "fold"}]}
{"binder": "humanized 9G7 best-framework antibody (antibody, human IgG1, kappa, V domains shown, Human IgG1) VH: EVQLVESGGGLVQPGGSLRLSCAFSGLSLSTSGKGVGWIRQAPGKGLEWLAHIWWDDDKRYNPALKSRLTISKDTSKNTVYLQMNSLRAEDTAVYYCARIELGRSYVMDYWGQGTLVTVSS VL: DIQMTQSPSSLSASVGDRVTITCRASQDVITSVAWFQQKPGKAPKLLIYSASYRYTGVPSRFSGSGSGTDFTLTISSLQPEDFATYYCQQHYTIPLTFGQGTKVEIKR", "values": [{"measurement": "Kd", "setting": "[3]", "result": 1, "unit": "nM"}, {"measurement": "Kd", "setting": "[1]", "result": 0.4, "unit": "nM"}]}
{"binder": "humanized 9G7 best-fit antibody (antibody, human IgG1, kappa, V domains shown, Human IgG1; also called 9G7 best-fit F36Y humanized variant) VH: QVTLKESGPTLVKPTQTLTLTCTFSGLSLSTSGKGVGWIRQPPGKALEWLAHIWWDDDKRYNPALKSRLTITKDTSKNQVVLTMTNMDPVDTATYYCARIELGRSYVMDYWGQGTLVTVSS VL: DIQMTQSPSSLSASVGDRVTITCQASQDVITSVAWYQQKPGKAPKLLIYSASYRYTGVPSRFSGSGSGTDFTFTISSLQPEDIATYYCQQHYTIPLTFGQGTKLEIKR", "values": [{"measurement": "Kd", "setting": "[3]", "result": 3.2, "unit": "nM"}, {"measurement": "fold improvement of affinity over the first humanized prototype", "setting": "[2]", "result": 2, "unit": "fold"}, {"measurement": "Kd", "setting": "[1]", "result": 0.5, "unit": "nM"}]}
{"binder": "chimeric HB-7 antibody (antibody, human IgG1, kappa, V domains shown) VH: KVQLQESGPSLVQPSQRLSITCTVSGFSLISYGVHWVRQSPGKGLEWLGVIWRGGSTDYNAAFMSRLSITKDNSKSQVFFKMNSLQADDTAIYFCAKTLITTGYAMDYWGQGTTVTVSS VL: DIELTQSPSSFSVSLGDRVTITCKASEDIYNRLAWYQQKPGNAPRLLISGATSLETGVPSRFSGSGSGKDYTLSITSLQTEDVATYYCQQYWSTPTFGGGTKLEIKR", "values": [{"measurement": "Kd", "setting": "[1]", "result": 2.5, "unit": "nM"}]}
{"binder": "BTB homodimer construct lacking the VH3 based scFv (other) DKTHTCPPCPAPEAAGGPSVFLFPPKPKDTLMISRTPEVTCVVVDVSHEDPEVKFNWYVDGVEVHNAKTKPREEQYNSTYRVVSVLTVLHQDWLNGKEYKCKVSNKALPAPIEKTISKAKGQPREPEVATFPPSRDELTKNQVTLVCLVTGFYPSDIAVEWESNGQPENNYKTDPPLLESQGSFALSSRLRVDKSRWQQGNVFSCSVMHEALHNHYTQKSLSLSPGK", "values": [{"measurement": "binding result", "setting": "Protein A", "result": "no binding"}, {"measurement": "binding result", "setting": "Protein G", "result": "no binding"}]}
{"binder": "BEAT CD38-HB7bestfit/CD3 antibody (bispecific antibody, human IgG1, kappa, L234A L235A) heavy: QVQLQESGPGLVKPSETLSLTCTVSGFSLISYGVHWVRQPPGKGLEWLGVIWRGGSTDYNAAFMSRLTISKDNSKNQVSLKLSSVTAADTAVYFCAKTLITTGYAMDYWGQGTLVTVSSASTKGPSVFPLAPSSKSTSGGTAALGCLVKDYFPEPVTVSWNSGALTSGVHTFPAVLQSSGLYSLSSVVTVPSSSLGTQTYICNVNHKPSNTKVDKKVEPKSCDKTHTCPPCPAPEAAGGPSVFLFPPKPKDTLMISRTPEVTCVVVDVSHEDPEVKFNWYVDGVEVHNAKTKPREEQYNSTYRVVSVLTVLHQDWLNGKEYKCKVSNKALPAPIEKTISKAKGQPREPAVYTLPPSRDELTKNQVKLVCLVTGFYPSDIAVEWESNGQPENNYYTTPPVLDSDGSFSLVSWLNVDKSRWQQGNVFSCSVMHEALHNHYTQKSLSLSPGK light: DIQLTQSPSSLSASVGDRVTITCRASEDIYNRLAWYQQKPGKAPKLLISGATSLETGVPSRFSGSGSGKDYTLTISSLQPEDFATYYCQQYWSTPTFGQGTKLEIKRTVAAPSVFIFPPSDEQLKSGTASVVCLLNNFYPREAKVQWKVDNALQSGNSQESVTEQDSKDSTYSLSSTLTLSKADYEKHKVYACEVTHQGLSSPVTKSFNRGEC scFv: EVQLVESGGGLVQPGGSLRLSCAASGYTFTRYTMHWVRQAPGKGLEWIGYINPSRGYTYYADSVKGRFTLSTDKSKNTAYLQMSSLRAEDTAVYYCARYYDDHYCLDYWGQGTLVTVSSGGGGSGGGGSGGGGSGGGASDIQLTQSPSSLSASVGDRVTITCRASSSVSYVAWYQQKPGKAPKRWIYDTSKLYSGVPSRFSGSGSGTDYTLTISSLQPEDFATYYCQQWSSNPPTFGQGTKVEIKGGGGTDKTHTCPPCPAPEAAGGPSVFLFPPKPKDTLMISRTPEVTCVVVDVSHEDPEVQFKWYVDGVEVHNAKTKPREEQYNSTFRVVSVLTVLHQDWLNGKEYKCKVSNKALPAPIEKTISKTKGQPREPEVATFPPSREEMTKNQVTLVCLVTGFYPSDIAVEWESSGQPENNYNTDPPLLESDGSFALSSRLRVDKSRWQQGNIFSCSVMHEALHNRFTQKSLSLSPGK", "values": [{"measurement": "Kd", "setting": "[1]", "result": 3.2, "unit": "nM"}, {"measurement": "EC50, T cell redirected killing of RPMI 8226 myeloma cells (RDL-FACS, purified T cells, 48h)", "setting": "human CD38 on cells", "result": 0.0022, "unit": "nM"}]}
{"binder": "BEAT CD38-HB7bestfit/CD3(SP34) antibody (bispecific antibody) heavy: QVQLQESGPGLVKPSETLSLTCTVSGFSLISYGVHWVRQPPGKGLEWLGVIWRGGSTDYNAAFMSRLTISKDNSKNQVSLKLSSVTAADTAVYFCAKTLITTGYAMDYWGQGTLVTVSSASTKGPSVFPLAPSSKSTSGGTAALGCLVKDYFPEPVTVSWNSGALTSGVHTFPAVLQSSGLYSLSSVVTVPSSSLGTQTYICNVNHKPSNTKVDKKVEPKSCDKTHTCPPCPAPEAAGGPSVFLFPPKPKDTLMISRTPEVTCVVVDVSHEDPEVQFKWYVDGVEVHNAKTKPREEQYNSTFRVVSVLTVLHQDWLNGKEYKCKVSNKALPAPIEKTISKTKGQPREPAVYTLPPSREEMTKNQVKLVCLVTGFYPSDIAVEWESSGQPENNYYTTPPMLDSDGSFSLVSWLNVDKSRWQQGNIFSCSVMHEALHNRFTQKSLSLSPGK light: DIQLTQSPSSLSASVGDRVTITCRASEDIYNRLAWYQQKPGKAPKLLISGATSLETGVPSRFSGSGSGKDYTLTISSLQPEDFATYYCQQYWSTPTFGQGTKLEIKRTVAAPSVFIFPPSDEQLKSGTASVVCLLNNFYPREAKVQWKVDNALQSGNSQESVTEQDSKDSTYSLSSTLTLSKADYEKHKVYACEVTHQGLSSPVTKSFNRGEC scFv: not shown", "values": [{"measurement": "EC50, T cell redirected killing of Daudi cells (RDL-FACS, PBMCs, 24h)", "setting": "human CD38 on cells", "result": 0.0018, "unit": "nM"}]}
